Experimental data from US12024547B2, “KLK5 inhibitory peptide” (DAIICHI SANKYO COMPANY, LIMITED, priority 2018, dated 2024).

T1: KLK5 (Homo sapiens, UniProt Q9Y337)
T1 construct: “Active KLK5” means active KLK5, which is composed of a domain having a protease activity; His tag (C); FLAG (Gly-DYKDDDDK before the His tag); made in house; host or cells: Expi293F cells
T1 sequence (Q9Y337 67-293): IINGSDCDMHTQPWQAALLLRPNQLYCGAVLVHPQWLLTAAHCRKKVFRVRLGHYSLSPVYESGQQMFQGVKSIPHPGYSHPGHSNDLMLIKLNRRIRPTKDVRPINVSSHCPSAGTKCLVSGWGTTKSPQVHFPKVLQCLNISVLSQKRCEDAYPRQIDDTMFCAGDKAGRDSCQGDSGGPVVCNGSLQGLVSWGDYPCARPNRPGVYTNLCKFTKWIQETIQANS

T2: human KLK14 (Homo sapiens, UniProt Q9P0G3)
T2 construct: His tag (C); FLAG (Gly-DYKDDDDK before the His tag); made in house; host or cells: Expi293F cells
T2 sequence (Q9P0G3 25-251): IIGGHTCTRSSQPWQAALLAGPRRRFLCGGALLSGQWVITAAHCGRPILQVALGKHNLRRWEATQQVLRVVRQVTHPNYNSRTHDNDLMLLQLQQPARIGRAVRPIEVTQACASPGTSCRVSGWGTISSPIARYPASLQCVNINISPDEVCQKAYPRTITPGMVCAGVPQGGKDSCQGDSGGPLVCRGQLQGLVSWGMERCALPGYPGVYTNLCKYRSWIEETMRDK

B1: K51005: KLK5/KLK7 inhibitory peptide (SPINK2 mutant), amino acid sequence SEQ ID NO: 24 (protein)
chain: GPQFGLFSKYRTPNCMQHARQGCHYDYDPVCGSDMSTYANECTLCMKIREGGHNIKIIRNGPCGG
B2: K51069: KLK5/KLK14 inhibitory peptide (SPINK2 mutant), amino acid sequence SEQ ID NO: 30 (protein)
chain: GPQFGLFSKYRTPNCSQVVETYCNRDYDPVCGSDMSTYANECTLCMKIREGGHNIKIIRNGPCGG
B3: K50062: KLK5 inhibitory peptide (SPINK2 mutant), amino acid sequence SEQ ID NO: 16 (protein)
chain: GPQFGLFSKYRTPNCQQYRELGCGRQYDPVCGSDMSTYANECTLCMKIREGGHNIKIIRNGPCGG
B4: K50016: KLK5 inhibitory peptide (SPINK2 mutant), amino acid sequence SEQ ID NO: 12 (protein)
chain: GPQFGLFSKYRTPNCSQWQYSSCDRVYDPVCGSDMSTYANECTLCMKIREGGHNIKIIRNGPCGG
B5: K50032: KLK5 inhibitory peptide (SPINK2 mutant), amino acid sequence SEQ ID NO: 6 (protein)
chain: GPQFGLFSKYRTPNCLNWTDHQCERDYDPVCGSDMSTYANECTLCMKIREGGHNIKIIRNGPCGG
B6: K51072: KLK5 inhibitory peptide (SPINK2 mutant), amino acid sequence SEQ ID NO: 10 (protein)
chain: GPQFGLFSKYRTPNCQEDMTEYCARDFDPVCGSDMSTYANECTLCMKIREGGHNIKIIRNGPCGG
B7: K51090: KLK5 inhibitory peptide (SPINK2 mutant), amino acid sequence SEQ ID NO: 18 (protein)
chain: GPQFGLFSKYRTPNCDEIGKYGCGRSYDPVCGSDMSTYANECTLCMKIREGGHNIKIIRNGPCGG
B8: K50055: KLK5 inhibitory peptide (SPINK2 mutant), amino acid sequence SEQ ID NO: 8 (protein)
chain: GPQFGLFSKYRTPNCANTMKQDCTREYDPVCGSDMSTYANECTLCMKIREGGHNIKIIRNGPCGG
B9: K51034: KLK5 inhibitory peptide (SPINK2 mutant), amino acid sequence SEQ ID NO: 14 (protein)
chain: GPQFGLFSKYRTPNCGRYTTGGCNKEYEPVCGSDMSTYANECTLCMKIREGGHNIKIIRNGPCGG
B10: K51057: KLK5/KLK7 inhibitory peptide (SPINK2 mutant), amino acid sequence SEQ ID NO: 28 (protein)
chain: GPQFGLFSKYRTPNCGTMQGSGCTYHYEPVCGSDMSTYANECTLCMKIREGGHNIKIIRNGPCGG
B11: K50098: KLK5 inhibitory peptide (SPINK2 mutant), amino acid sequence SEQ ID NO: 20 (protein)
chain: GPQFGLFSKYRTPNCTSQTLGSCSREYDPVCGSDMSTYANECTLCMKIREGGHNIKIIRNGPCGG
B12: K51028: KLK5/KLK7 inhibitory peptide (SPINK2 mutant), amino acid sequence SEQ ID NO: 22 (protein)
chain: GPQFGLFSKYRTPNCYQYRSKGCTHEYDPVCGSDMSTYANECTLCMKIREGGHNIKIIRNGPCGG
B13: K50031: KLK5/KLK7 inhibitory peptide (SPINK2 mutant), amino acid sequence SEQ ID NO: 26 (protein)
chain: GPQFGLFSKYRTPNCGEYKGRGCYYHYDPVCGSDMSTYANECTLCMKIREGGHNIKIIRNGPCGG
B14: K50015: KLK5/KLK14 inhibitory peptide (SPINK2 mutant), amino acid sequence SEQ ID NO: 32 (protein)
chain: GPQFGLFSKYRTPNCYDTTTHYCSREYDPVCGSDMSTYANECTLCMKIREGGHNIKIIRNGPCGG

biological target: T1, KLK5; test: KLK5 binding activity of KLK5 inhibitory peptide, surface plasmon resonance (biotinylated KLK5 captured, peptide as analyte); conditions: BIAcore T 200, single cycle kinetics
Procedure: In order to measure the binding affinity of the KLK5 inhibitory peptides, surface plasmon resonance analysis was conducted using BIAcore T 200 (GE healthcare). A complementary strand of DNA of a streptavidin conjugate was captured by hybridization on Sensor Chip CAP (GE healthcare) on which single-stranded DNA immobilized. Next, KLK5 biotinylated using EZ-Link NHS-PEG4-Biotin (Thermo Fisher Scientific) was captured at a flow rate of 10 μL/min to immobilize about 10 RU. Thereafter, the KLK5 inhibitory peptide, serially diluted 2-fold with HBS-EP (0.625 to 10 nM), was added thereto as an analyte at a flow rate of 30 μL/min. In the BIAcore T 200 Evaluation software (version 2.0), kon and koff were calculated by analysis using Single cycle kinetics in a simple one-to-one Langmuir binding model. The dissociation constant KD was calculated as a ratio of koff/kon. Further, multiple KLK5 inhibitory peptides were measured by regenerating Sensor Chip CAP using a Regeneration buffer attached to a Biotin CAPture Kit (GE healthcare) and repeatedly capturing biotinylated KLK5.

Q: B1 was tested. Which “Koff” value did it give?
A: The value was 0.0012 s⁻¹.

Q: Which “Koff” value does the source give for B2 here?
A: The value was 1e-06 s⁻¹.

Q: Which “Koff” value does the source give for B3 here?
A: The value was 2.9e-06 s⁻¹.

Q: For B4, which “Koff” value is on record?
A: Its value is 0.00029 s⁻¹.

Q: How did the “Koff” value turn out when B5 was run?
A: The value was 0.00027 s⁻¹.

Q: With B6 as the molecule, how does the “Koff” value read?
A: Its value is 2.2e-05 s⁻¹.

Q: How did the “Koff” value turn out when B7 was run?
A: Its value is 5.7e-05 s⁻¹.

Q: Which “Koff” value does the source give for B8 here?
A: The value was 1.8e-05 s⁻¹.

Q: With B9 as the molecule, how does the “Koff” value read?
A: Its value is 3.5e-05 s⁻¹.

Q: B10 was tested. Which “Koff” value did it give?
A: Its value is 0.0015 s⁻¹.

Q: With B11 as the molecule, how does the “Koff” value read?
A: Its value is 1.8e-05 s⁻¹.

Q: B12 was tested. Which “Koff” value did it give?
A: Its value is 2e-05 s⁻¹.

Q: How did the “Koff” value turn out when B13 was run?
A: Its value is 5e-05 s⁻¹.

Q: Which “Koff” value does the source give for B14 here?
A: Its value is 1e-06 s⁻¹.

biological target: T2, human KLK14; test: Human KLK14 inhibitory activity, peptide substrate degradation; format: biochemical; conditions: KLK5 inhibitory peptide; hKLK14 0.2 μg/mL, substrate 100 μM
Procedure: The substrate peptide was dissolved in DMSO to 10 mM and diluted with an assay buffer (50 mM Tris-HCl, 150 mM NaCl, pH 8.0) for use. 25 μL each of human/mouse KLK5, human/mouse KLK7, or human/mouse KLK14 and the inhibitory peptide diluted with the assay buffer were mixed, followed by a reaction at 37° C. for 20 minutes. Thereafter, 50 μL of a substrate diluted with the assay buffer was added thereto, and the fluorescence signal was measured using Enspire (PerkinElmer). The combinations of the enzyme and the substrate used were as follows.
Evaluation of Human KLK14 inhibitory activity: hKLK14 with a final concentration of 0.2 μg/mL, a substrate peptide Boc-Val-Pro-Arg-AMC with a final concentration of 100 μM (R&D Systems, Inc.), and a fluorescence signal with excitation at 380 nm/emission at 460 nm
The average value of three independent experiments was used to calculate the IC50 value.
According to the method described in Example 3-1, the inhibitory activities of each KLK5 inhibitory peptide Fc fusion against human/mouse KLK5, human/mouse KLK7, and human/mouse KLK14 were evaluated. […] The average value of three independent experiments was used to calculate the IC50 value.

Q: B1 was tested. Which IC50 did it give?
A: Its IC50 is over 1000 nM.

biological target: T1, KLK5; test: X-ray crystal structure analysis of KLK5/KLK5 inhibitory peptide complex; conditions: resolution 1.8 Å
Procedure: According to the methods described in (1-2) and (2-2), KLK5 inhibitory peptides K51034 and KLK5 having the amino acid sequences shown by the SEQ ID numbers were prepared. After mixing the two under conditions of 50 mM Tris-HCl, 150 mM NaCl, and pH 8.0, a complex was isolated and purified by gel filtration chromatography (Superdex 200 10/300 GL).
The complex solution prepared in (4-1) was concentrated to 12 mg/mL, thereafter mixed with a reservoir solution (0.2 M Magnesium Chloride hexahydrate, 20% PEG3350) at a ratio of 1:1, and crystallized by a vapor diffusion method. The obtained cubic single crystal was immersed in a reservoir solution containing 20% glycerol and thereafter frozen in liquid nitrogen. The frozen crystals were irradiated with X-rays in a cryo-stream to obtain a diffraction image (Hypixel 6000HE/MicroMax007). Scaling data with a maximum resolution of 1.7 Å was obtained by analysis using CrysAlisPro. The phase was determined by the molecular replacement method using KLK5 alone (PDB ID: 2PSX) and SPINK2 alone (PDB ID: 2JXD) as templates. After structural refinement, complex crystals of KLK5/the peptide K51034 were determined at a resolution of 1.8 Å. One molecule each of KLK5 and SPINK2 was contained in a unit cell. […]

Q: For B9, which “binding site on KLK5 in complex crystal” value is on record?
A: Its value is “bound to a region containing the KLK5 enzyme's active site”.
